Here are results for 3 substances from paper PMC6146036 (Frontiers in Molecular Neuroscience, 2018).

Data set [1] in a line: Thioflavin-T (ThT) fluorescence Aβ fibrillization assay. The data set is classed as physicochemical. To be noted: 800 ng/mL Aβ40, 100 ng/mL Aβ42; ThT 1 μM, pH 7.4, 37°C overnight, ex 450/em 485 nm, ChAT, choline and ACoA as in activity assay; method: quadruplicate, legend: mean ± SEM of three readings. As for the experimental part: The ThT fluorescence assay was used to ensure that the Aβ peptides remained soluble during the aforementioned experimental setups. The ThT fluorescence assay was performed in 96-well black plates with a transparent bottom, as described before ([Kumar et al., 2016b]). […] The concentration of ChAT, choline, and ACoA were as used in the aforementioned experiments. To each well, 100 μL/well of a 1 μM ThT solution was added, the plate was then carefully sealed and the changes in fluorescence were monitored from the bottom of the wells, at an emission and excitation wavelengths of 485 nm and 450 nm, respectively, at 15-min intervals at 37°C for an overnight duration, using a microplate spectrophotometer reader (Infinite M1000, Tecan). Each Aβ peptide concentration was run in quadruplicate. Several wells with Aβ alone were also included as control, and wells without ThT were used as negative controls.

The target in data set [2] is T1, human recombinant choline acetyltransferase (rChAT) (Homo sapiens, UniProt P28329).
T1 construct: made in house; host or cells: E. coli BL21 Rosetta2
T1 sequence (P28329 1-630 isoform P28329-3): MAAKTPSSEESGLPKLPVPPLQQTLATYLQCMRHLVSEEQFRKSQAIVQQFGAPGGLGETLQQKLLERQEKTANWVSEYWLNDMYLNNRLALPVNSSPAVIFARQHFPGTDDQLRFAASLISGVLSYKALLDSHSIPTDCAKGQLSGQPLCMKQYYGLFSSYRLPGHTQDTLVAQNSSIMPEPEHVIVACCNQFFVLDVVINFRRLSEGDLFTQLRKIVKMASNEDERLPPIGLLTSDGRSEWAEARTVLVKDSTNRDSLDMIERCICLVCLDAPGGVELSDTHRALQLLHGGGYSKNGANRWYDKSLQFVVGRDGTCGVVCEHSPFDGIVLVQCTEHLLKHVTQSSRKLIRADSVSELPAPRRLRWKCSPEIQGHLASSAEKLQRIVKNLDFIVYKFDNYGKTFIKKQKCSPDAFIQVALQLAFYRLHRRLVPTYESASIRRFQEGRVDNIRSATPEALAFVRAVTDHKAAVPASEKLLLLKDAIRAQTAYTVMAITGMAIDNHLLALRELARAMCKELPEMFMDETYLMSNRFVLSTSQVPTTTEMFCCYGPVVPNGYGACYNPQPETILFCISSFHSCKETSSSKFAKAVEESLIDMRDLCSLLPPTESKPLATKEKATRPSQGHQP
Nature of the data set: Fluorometric in vitro ChAT activity assay (human rChAT, CPM read-out). The data set is classed as biochemical. The settings on record: for direction of effect on ChAT activity at high concentrations: 0 to 3,800 ng/mL (0–833.3 nM), 1:2 dilutions, two independent experiments, Figure 2C; for difference in slopes of ChAT rate vs gelatin control: 6.4 ng/mL Aβ40 or 0.16 ng/mL Aβ42 (F = 21, p < 0.0001), linear regression; for effect on increases in ChAT activity at the higher Aβ concentration points: 160 and 800 ng/mL Aβ40, 100 ng/mL Aβ42, activity still higher than baseline; for concentration range giving the highest level of ChAT activation in the mixture: Aβ40:Aβ42 10:1 mixture, Figure 5C, with or without gelatin; for effect on ChAT activity at physiological concentrations: CSF concentrations ∼4–6.4 ng/mL Aβ40, ∼0.4–0.8 ng/mL Aβ42, Figures 2A,B. As for the experimental part:
Recombinant ChAT was purified as described previously ([Kumar et al., 2016a], [2017]). Briefly, DYT media was inoculated with an O/N culture of E. coli BL21 Rosetta2 transformed with pProExHTa-ChAT (a gift from Dr. Brian Shilton, Department of Biochemistry, University of Western Ontario, London, ON, Canada). The bacteria were grown in shaking incubator at 37°C with 200 rpm until the optical density at 600 nm reached 0.5. After which, 0.5 mM IPTG was added and His6-ChAT was expressed for approximately 16 h at 18°C. Next, the cells were harvested and His6-ChAT was purified with “Ni-NTA fast start Kit” (Qiagen) following the manufacturer’s instructions. The elution buffer was exchanged to storage buffer [10 mM Tris pH 7.4, 500 mM NaCl, 10% (v/v) glycerol] using 30 kDa molecular weight cutoff Amicon Ultra concentrators (Merck Millipore). The purity and molecular weight of the protein were determined using SDS-PAGE electrophoresis. The total protein concentration was determined using DC Protein Assay (Bio-Rad). The purified protein was aliquoted and stored at −80°C.
ChAT activity was measured with our newly developed robust in-house fluorometric assay, using human rChAT protein. […] The reagents, choline chloride (C7017), acetyl coenzyme-A (ACoA, A2181), 7-diethylamino-3-(4-maleimidophenyl)-4-methylcoumarin (CPM) (C1484), thioflavin-T (ThT; T3516), and gelatin (G7041) were purchased from Sigma-Aldrich (St. Louis, MO, United States).
Then, 50 μL of a cocktail-A [dilution buffer containing 10 μM ACoA (final concentration) and 15 μM CPM (final concentration)] was added to each well. Immediately after adding the cocktail-A, the changes in fluorescence were monitored kinetically at 479 nm emission wavelength after exciting at 390 nm wavelength, at 1- to 2-min intervals for 15–20 min using a microplate spectrophotometer reader (Infinite M1000, Tecan).
Each Aβ peptide dilution was run in triplicates. On each 96-wells plate, several enzyme wells without Aβ were also included as positive controls and for estimating the activation level by Aβ peptides. Negative controls were wells without enzyme, but with all the other above-mentioned reagents. The kinetic rate of enzyme activity (as ΔRFU/min slope data) was calculated and processed using the GraphPad Prism 7 analysis software. The actual rate values as well as statistical analysis values (P-values) of ChAT activity at different Aβ concentrations or alone were calculated after fitting the curve with the linear regression function in the GraphPad Prism 7. […]

Data set [3] concerns cultured cholinergic neurons. The settings on record: high nanomolar concentration; ref Pedersen et al., 1996; Hoshi et al., 1997; Kar et al., 1998; Nunes-Tavares et al., 2012; cited from earlier work. From the text:
The functional relationship between Aβ and the cholinergic system, especially ChAT, is quite complex and still need further exploration to gain a better understanding of Aβ native function and role in AD pathology.

Entries after “also recorded” stand apart in the source; their conditions may differ.

For the substance “Aβ40: amyloid-β peptide, recombinant, purchased from rPeptide (Cat no. A-1153-1)”, the “difference in ThT fluorescence intensity vs control wells (no Aβ)” value in data set [1] is reported as “no significant differences in the ThT fluorescence intensity”. In data set [2], the “direction of effect on ChAT activity at high concentrations” value is “inhibition of ChAT rather than activation”, the “effect on increases in ChAT activity at the higher Aβ concentration points” value was “started to decline” and the “concentration range giving the highest level of ChAT activation in the mixture” value was 1.3 to 6.4 ng/mL. In addition, the “rate of ChAT activity in the presence of Aβ40” value in data set [2] (6.4 ng/mL Aβ40, rChAT 0.146 μg/mL, 150 μM choline chloride, 10 μM ACoA, 15 μM CPM, 30 min room temperature, pH 7.4, no gelatin, mean ± SD of ≥2 readings, control (ChAT alone) 26.06 ± 1.07, F = 33.21, p < 0.0001) is 36.5 ± 1.48 ΔRFU/min. In data set [2] (1 mg/mL gelatin, 6.4 ng/mL Aβ40, F = 9.2, p < 0.004), the “difference in elevations or intercepts of ChAT rate vs gelatin control” value is “significant”. In addition, the “difference in slopes of ChAT rate vs gelatin control” value in data set [2] (1 mg/mL gelatin) is “not statistically significant”. Besides, the “effect on ChAT activity at physiological concentrations” value in data set [2] (no gelatin) is recorded as “able to increase the activity of ChAT at physiological concentrations”. The “concentration at which the increase in ChAT activity reaches a plateau” value in data set [2] (no gelatin, dilution series 0–800 ng/mL Aβ40, 0–100 ng/mL Aβ42) is reported as roughly 32 ng/mL. Also, in data set [2] (some experiments vs others), the “overall effect on ChAT across experiments” value was “inhibited ChAT in some experiments, while in others it enhanced its activity”.

With “Aβ42: amyloid-β peptide, recombinant, purchased from rPeptide (Cat no. A-1166-1)”, the “difference in ThT fluorescence intensity vs control wells (no Aβ)” value in data set [1] is “no significant differences in the ThT fluorescence intensity”. In data set [2], the “direction of effect on ChAT activity at high concentrations” value was “activation of ChAT”, the “effect on increases in ChAT activity at the higher Aβ concentration points” value is recorded as “started to decline” and the “concentration range giving the highest level of ChAT activation in the mixture” value was in the range of 0.12 to 0.64 ng/mL. In addition, in data set [2] (0.16 ng/mL Aβ42, rChAT 0.146 μg/mL, 150 μM choline chloride, 10 μM ACoA, 15 μM CPM, 30 min room temperature, pH 7.4, no gelatin, mean ± SD of ≥2 readings, control (ChAT alone) 53.8 ± 1.11, F = 98.5, p < 0.0001), the “rate of ChAT activity in the presence of Aβ42” value is recorded as 71.6 ± 1.41 ΔRFU/min. Further, in data set [2] (1 mg/mL gelatin), the “difference in slopes of ChAT rate vs gelatin control” value is “statistically highly significant”. The “effect on ChAT activity at physiological concentrations” value in data set [2] (no gelatin) is “able to increase the activity of ChAT at physiological concentrations”. Moreover, the “reduction in ACh synthesis” value in data set [3] is 40–50%.

Take gelatin [reference compound]: in data set [2] (gelatin 0 to 4 mg/mL, mean ± SD of four readings), the “effect of gelatin on ChAT activity” value is “slight increase in the rate of ChAT activity within the 0.5–2 mg/mL gelatin concentration range; also recorded: no significant effect on ChAT activity”. Moreover, in data set [2] (gelatin 0.5 to 4 mg/mL, Figure 4A, mean ± SD of four readings), the “change in ChAT activity by gelatin” value is −5% to +9.
